We go through 30 sequences from the supplement of paper PMC9170038.

For data set [1], the system named is MS2 coat protein. In words: apparent KD of MS2 coat protein, switch OFF state (with FMN for OFF switches, without FMN for ON switches); designed switch direction (-1 OFF switch, 1 ON switch): -1; higher = weaker reporter binding. Particulars: FMN input: 0 or 200 uM; Eterna round: R93 (includes R88 designs). In a few lines: (§1)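 Designed RNA switches, transcribed on-chip from Illumina sequencing clusters, were titrated with SNAP-549-labelled MS2 coat protein from 0.7 or 1.5 nM to 3 µM in twofold steps. The solution was 100 mM Tris-HCl pH 7.5, 80 mM KCl, 4 mM MgCl2, with constant ligand or without it. Apparent KD is the median over each design's normalised cluster binding-curve fits.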

The subject of data set [2] is MS2 coat protein. In words: apparent KD of MS2 coat protein, switch ON state; designed switch direction (-1 OFF switch, 1 ON switch): -1; higher = weaker reporter binding. The note with it: FMN input: 0 or 200 uM; Eterna round: R93 (includes R88 designs). In short, it runs like this: as §1

In the case of “AGCUAGUCAGGAUAUACGAACAUGUCAGAAGACGUGAAGGGACAUGAGGAUCACCCAUGUAGAAGGGACUAGCA [74%, Web mod - With 1 more G's]”, the “apparent KD of MS2 coat protein” value is 102 nM in the data set on MS2 coat protein [1] and 31.9 nM with MS2 coat protein [2].

On to “AGCUAGUGAGGAUAUACGAAUCUGUCAAAAGACGGAAGGGAACAUGAGGAUCACCCAUGUAGAAGGCACUAGCA [Web Mod 74% 6]”, for which the “apparent KD of MS2 coat protein” value in the data set on MS2 coat protein [1] was found to be 23.2 nM; in the data set with MS2 coat protein [2] it was 31.9 nM.

As for “AGGAAACAUGAGGAUCACCCAUGUGAGGAUAUACAAAAGAAAAGAAAAGAAAGAAGAAGUAGAAGGUACAAGAA [Djedkare Isesi]”, the “apparent KD of MS2 coat protein” value in the data set with MS2 coat protein [1] came out at 24.7 nM; in the data set on MS2 coat protein [2], 21.7 nM.

For the sequence “AGGAAACAUGAGGAUCACCCAUGUGAGGAUAUUCAAAAGAAAAGAAAAGAAAGAAGAAGAAGAAGGUACAAGAA [Neferefre]”, the figures for the “apparent KD of MS2 coat protein” value with MS2 coat protein [1] and with MS2 coat protein [2] were 29.9 nM and 28.3 nM, respectively.

Turning to “AGGCAGACAGGAUAUACUUGGGCAGCCAGUAUGGUAAUAUAACAUGAGGAUCACCCAUGUAGAAGGGUCAGAAA [JR_Exc002_Sub210]”, the “apparent KD of MS2 coat protein” value in the data set on MS2 coat protein [1] is 88.4 nM; with MS2 coat protein [2], 94.3 nM.

In the case of “AGGCGGGUAGGAUAUGCGUACUGACGGGAAAACUGAAUGGUACAUGAGGAUCACCCAUGUAGAAGGGCUCUGAA [Dora Explored 23 - Jieux - Exclusion 2]”, the “apparent KD of MS2 coat protein” value in the data set with MS2 coat protein [1] came out at 111 nM; in the data set on MS2 coat protein [2], 67.1 nM.

With “AGGGAGUGAGGAUAUACGAAAUAAAAAGAAGGAAAAAAAGAGUAGAAGGCACAUGAGGAUCACCCAUGUGAGAA [milkweed 12]”, the “apparent KD of MS2 coat protein” value in the data set with MS2 coat protein [1] amounted to 20.6 nM; in the data set with MS2 coat protein [2], 20.7 nM.

For “AGGGUACAUGAGGAUCACCCAUGUUAGGAUAUACAAAAGAAAAGAAAAGAAAGAAGAAGUAGAAGGGACAAGAA [Teti]”, the “apparent KD of MS2 coat protein” value in the data set on MS2 coat protein [1] was determined as 59.1 nM; in the data set on MS2 coat protein [2], 45.5 nM.

For “AGGUAGUCAGGAUAUGCGUGAAGAAUAAAACAAAUAACAACGCAGAAGGGACAUGAGGAUCACCCAUGUUAAGA [May 48]”, the “apparent KD of MS2 coat protein” value came to 31.7 nM in the data set with MS2 coat protein [1] and 36.1 nM with MS2 coat protein [2].

Take “AGGUUGUCAGGAUAUGCGUGAAGAAUAAAACAAAUAACAACGCAGAAGGGACAUGAGGAUCACCCAUGUAACCA [May 53]”: the “apparent KD of MS2 coat protein” value stood at 27.2 nM in the data set on MS2 coat protein [1] and 35.6 nM with MS2 coat protein [2].

For the sequence “AGUCGGCGAGGAUAUACAUGAGGAUCACCCAUGUGAGAGAAAAAAGUGAGUCAGAAAAGUAGAAGGCGCUGACA [JL Lego Mod 4]”, the “apparent KD of MS2 coat protein” value is 41.6 nM in the data set with MS2 coat protein [1] and 63.4 nM with MS2 coat protein [2].

Regarding “AGUGAGUCAGGAUAUUAGUGAAGAAUAAAAGAAAUAACAACUAAGAAGGGACAUGAGGAUCACCCAUGUACACA [May 58]”, the “apparent KD of MS2 coat protein” value in the data set on MS2 coat protein [1] came out at 20.9 nM; with MS2 coat protein [2] it was 26 nM.

As to “AGUUGGCGAGGAUAUACAUGAGGAUCACCCAUGUAAAAUAAAUAAAAAAUAAAAGGGAGUAGAAGGCGCUGACA [73%, Moding Norbert Elias, 16]”, the “apparent KD of MS2 coat protein” value was 53.4 nM in the data set on MS2 coat protein [1] and 41.9 nM with MS2 coat protein [2].

“AGUUGGCGAGGAUAUACAUGAGGAUCACCCAUGUGAGAGAAAAAAGUGAAAAAGAAAAGUAGAAGGCGCUGACA [73%, Moding Norbert Elias, 3]”: the “apparent KD of MS2 coat protein” value in the data set on MS2 coat protein [1] was determined as 195 nM; in the data set on MS2 coat protein [2], 47.9 nM.

For the sequence “AGUUGGCGAGGAUAUACAUGAGGAUCACCCAUGUGAGAGAAAAAAGUGAGAAAGAAAAGUAGAAGGCGCUGACU [salish99-ex3-06]”, the “apparent KD of MS2 coat protein” value in the data set on MS2 coat protein [1] came to 307 nM; in the data set with MS2 coat protein [2], 46.4 nM.

Consider “AGUUGGCGAGGAUAUACAUGAGGAUCACCCAUGUGAGAGAAAUAAGUGAGAAAGAAAAGUAGAAGGCGCUAACA [JL Lego Mod 18]”, for which the results for the “apparent KD of MS2 coat protein” value in the data set on MS2 coat protein [1] and in the data set with MS2 coat protein [2] were 164 nM and 53.5 nM, respectively.

Turning to “AGUUGGCGAGGAUAUACAUGAGGAUCACCCAUGUGAGAGUAAGAAGUGAGAAAGAGAAGUAGAAGGCGCUGACA [Ruby 55]”, the “apparent KD of MS2 coat protein” value worked out at 220 nM with MS2 coat protein [1] and 46.5 nM with MS2 coat protein [2].

Regarding “AUAAACAGAGGAUAUACGCGGAUUAUUGAAAUUAUUGAUUCACAUGAGGAUCACCCAUGUAGAAGGCUGGAAAA [LROPPY Exclusion 2 - v04_doubled Us]”, the “apparent KD of MS2 coat protein” value in the data set on MS2 coat protein [1] was 124 nM; in the data set on MS2 coat protein [2] it was 35.7 nM.

For “AUAAACGGAGGAUAUACAUGAGGAUCACCCAUGUAAAUAAAUAGGAGAGCCACAAUAAGUAGAAGGUCGAAUAA [JR_Exc003_Sub010]”, the “apparent KD of MS2 coat protein” value amounted to 32.4 nM in the data set on MS2 coat protein [1] and 35.6 nM in the data set with MS2 coat protein [2].

For “AUAAAGUCAGGAUAUGUAAAAAUAACGAAAGUUAUAAAUAAACAGAAGGGACAUGAGGAUCACCCAUGUGGAAU [Meechl MS2 EX4 62% 3]”, the figures for the “apparent KD of MS2 coat protein” value in the data set with MS2 coat protein [1] and with MS2 coat protein [2] were 75 nM and 54.2 nM, respectively.

Regarding “AUAAUCCUAGGAUAUACAUGGAUAUACAUUCAUGUGGACCUACAUGAGGAUCACCCAUGUAGAAGGAGGAUGAA [Mat - Same state - Mayanna Mod - D138]”, the “apparent KD of MS2 coat protein” value came to 39.5 nM in the data set with MS2 coat protein [1] and 35 nM in the data set with MS2 coat protein [2].

For “AUAAUGCGAGGAUAUACAUGAGGAUCACCCAUGUAAAUAAAUAGGAGAGCCACAUUAAGUAGAAGGUGCAUUAA [JR_Exc003_Sub501]”, the “apparent KD of MS2 coat protein” value is 84.7 nM in the data set on MS2 coat protein [1] and 32.8 nM in the data set with MS2 coat protein [2].

Turning to “AUAGGCCUAGGAUAUACAUGAGGAUCACCCAUGUUAACACUUCAAUCAAGUUAAUAGUGUAGAAGGAGGAAUAA [JR_Exc003_Sub308]”, the results for the “apparent KD of MS2 coat protein” value in the data set on MS2 coat protein [1] and in the data set with MS2 coat protein [2] were 31.5 nM and 29.3 nM, respectively.

“AUAGUACAUGAGGAUCACCCAUGUCAGGAUAUUGGAUAUGACAUAAAAAAAAUGUUAACGAGAAGGGACUAUAA [EX1 Malc#16]”: the “apparent KD of MS2 coat protein” value with MS2 coat protein [1] was 27.7 nM; in the data set on MS2 coat protein [2] it was 29.2 nM.

On to “AUAUAACAUGAGGAUCACCCAUGUCAGGAUAUCGAACCCAACACAACCAAAAUGUCGGCGAGAAGGGACAAAAA [Default title]”, for which the “apparent KD of MS2 coat protein” value amounted to 22.6 nM in the data set with MS2 coat protein [1] and 27.5 nM in the data set with MS2 coat protein [2].

Consider “AUCAUGUAAGGAUAUGUAAGAAAAGAAAAGAAAGAAAAGAAACAGAAGGUACAUGAGGAUCACCCAUGUAAGAA [EteRNA is fun!]”, for which the results for the “apparent KD of MS2 coat protein” value with MS2 coat protein [1] and in the data set on MS2 coat protein [2] were 34.5 nM and 26.5 nM, respectively.

On to “AUCAUGUAAGGAUAUUCAAGAAAAGAAAAGAAAGAAAAGAAGAAGAAGGUACAUGAGGAUCACCCAUGUAAGAA [EteRNA is fun!]”, for which the entries for the “apparent KD of MS2 coat protein” value with MS2 coat protein [1] and in the data set with MS2 coat protein [2] were 64.2 nM and 42.5 nM, respectively.

Take “AUGUACCUAGGAUAUACAUGAGGAUCACCCAUGUUCCGGGAGCAAUCAAGUUAAUAUUGUAGAAGGAGGUGAAA [JR_Exc003_Sub314]”: the “apparent KD of MS2 coat protein” value with MS2 coat protein [1] came out at 28.4 nM; in the data set on MS2 coat protein [2], 16 nM.

As for “AUGUAGGUAGGAUAUGCAUAGAUACAGAUUCAUGUGGAACUACAUGAGGAUCACCCAUGUAGAAGGACCUAAAA [Mat - Same state - Mayanna Mod - D126]”, the “apparent KD of MS2 coat protein” value in the data set on MS2 coat protein [1] amounted to 30 nM; in the data set with MS2 coat protein [2] it was 20.2 nM.

As to “CACGUACAUGAGGAUCACCCAUGUUAGGAUAUGCCGGGUAAGAGAAAACUAAAAAUCCGCAGAAGGGACGAAAC [Bilbo Confounded 15 - Jieux - Exclusion 1]”, the “apparent KD of MS2 coat protein” value was 33.8 nM with MS2 coat protein [1] and 32 nM in the data set with MS2 coat protein [2].
